Read-outs that look alike come from different tables or passages of the source.
Legend:
[1] = cited from earlier work; for Duration of action: in vivo
[2] = system: NIH 3T3 cells; assay: hDHFR mutant-GFP reporter stability with DMSO, MTX or TMP (FACS); assay type: cell-based; settings: for GFP intensity Fold Change vs DMSO: 48 h; for Destabilizing mutation co-efficient: GFP intensity vs hDHFR (WT); for Destabilizing mutation co-efficient / Median Fluorescence signal with DMSO: no ligand; for Median Fluorescence signal with DMSO: hDHFR-GFP, DMSO 48 h
Description: Known destabilizing mutations in E. coli DHFR (ecDHFR) were mapped onto the structure of human DHFR (hDHFR) and corresponding mutations in wild type hDHFR protein were generated using site directed mutagenesis. hDHFR mutants were then fused to a linker, GGSGGG (SEQ ID NO: 2728) and a GFP reporter gene at the N terminus. […] The hDHFR N terminus mutant construct cloned into pLVX. IRES. The reporter constructs were transfected into NIH 3T3 cells. […] DMSO was used as control. Fluorescence signal was measured by FACS and median fluorescence signal intensity was calculated. The destabilizing mutation co-efficient was calculated as the fold change in GFP intensity in the hDHFR mutant constructs compared to the hDHFR (WT) in the absence of the ligand. Destabilizing mutation co-efficients less than 1 are desired in DDs.
Percentage of GFP positive cells as a measure of ligand dependent DD stabilization in each transfection was calculated using FACS Calibur™ (see Table 46).

[3] = system: hDHFR; assay: Immunoblot of hDHFR WT and mutants after TMP, MTX or DMSO; assay type: cell-based, human; settings: MTX or DMSO 48 h
Description: The results were consistent using both the AcGFP antibody as well as the hDHFR antibody.

[4] = system: HCT-116 cells; assay: DD regulated luciferase, western blot and luciferase activity; assay type: cell-based, human; settings: 1 μM Shield-1 or 10 μM Trimethoprim, 24 h
Description: DD regulated luciferase can be used to track cells in vivo e.g. T cells. Firefly luciferase or Renilla luciferase may be utilized as the payload. HCT-116 cells were stably transduced with the constitutive (OT-RLuc-001) or DD regulated constructs (OT-RLuc-002, OT-RLuc-003, OT-RLuc-004, OT-RLuc-005 and OT-RLuc-006). […] Blots were also probed with anti-GAPDH antibody to ensure uniform protein loading in all samples. […] (FIG. 59A).
Ligand dependent activity of Renilla and firefly luciferase constructs was measured using coelentrazine and luciferin substrates respectively. […] Luciferase activity was measured as luminescence reading using a luminometer and the values were compared to control samples consisting of lysis buffer and substrate.

Molecule: CN(Cc1cnc2nc(N)nc(N)c2n1)c1ccc(C(=O)N[C@@H](CCC(=O)O)C(=O)O)cc1 [Methotrexate]
- Cmax ([1]; 12 g/m^2 infusion): 1.5 µM
- Duration of action [1]: >12 h

Molecule: COc1cc(Cc2cnc(N)nc2N)cc(OC)c1OC [Trimethoprim]
- Cmax ([1]; IV, approved dose IV 20 mg/kg/6 hr): 25 µM
- Cmax ([1]; PO, approved dose PO up to 20 mg/kg/day): 1 µM
- Duration of action [1]: 2 to 72 h

B1: OT-hDHFRN-005: hDHFR A125F, Y122I-GFP (protein, UniProt P00374 1-187, looked up, variant A125F Y122I)
Dihydrofolate reductase: MVGSLNCIVAVSQNMGIGKNGDLPWPPLRNEFRYFQRMTTTSSVEGKQNLVIMGKKTWFSIPEKNRPLKGRINLVLSRELKEPPQGAHFLSRSLDDALKLTEQPELANKVDMVWIVGGSSVIKEFMNHPGHLKLFVTRIMQDFESDTFFPEIDLEKYKLLPEYPGVLSDVQEEKGIKYKFEVYEKND
modifications: GFP fusion
notes: hDHFR A125F, Y122I-GFP
- % GFP positive cells ([2]; 1 μM MTX): 89.6%
- GFP intensity Fold Change vs DMSO ([2]; 1 μM MTX): 26.98
- % GFP positive cells ([2]; 10 μM TMP): 54.7%
- GFP intensity Fold Change vs DMSO ([2]; 10 μM TMP): 6.24
- % GFP positive cells ([2]; DMSO): 0.64%
- Destabilizing mutation co-efficient [2]: 0.14
- Median Fluorescence signal with DMSO [2]: 2.55
- Protein level stabilization (immunoblot, FIG. 19) [3]: stabilized following treatment with both MTX and TMP

B2: OT-hDHFRN-007: hDHFR L94A, T147A-GFP (protein, UniProt P00374 1-187, looked up, variant L94A T147A)
Dihydrofolate reductase: MVGSLNCIVAVSQNMGIGKNGDLPWPPLRNEFRYFQRMTTTSSVEGKQNLVIMGKKTWFSIPEKNRPLKGRINLVLSRELKEPPQGAHFLSRSADDALKLTEQPELANKVDMVWIVGGSSVYKEAMNHPGHLKLFVTRIMQDFESDAFFPEIDLEKYKLLPEYPGVLSDVQEEKGIKYKFEVYEKND
modifications: GFP fusion
notes: hDHFR L94A, T147A-GFP
- % GFP positive cells ([2]; 1 μM MTX): 40.7%
- GFP intensity Fold Change vs DMSO ([2]; 1 μM MTX): 4.46
- % GFP positive cells ([2]; 10 μM TMP): 0.52%
- GFP intensity Fold Change vs DMSO ([2]; 10 μM TMP): 1.00
- % GFP positive cells ([2]; DMSO): 0.26%
- Destabilizing mutation co-efficient [2]: 0.15
- Median Fluorescence signal with DMSO [2]: 2.67
- Protein level stabilization (immunoblot, FIG. 19) [3]: stabilization exclusively with MTX

B3: OT-hDHFRN-008: hDHFR G21T, Y122I-GFP (protein, UniProt P00374 1-187, looked up, variant G21T Y122I)
Dihydrofolate reductase: MVGSLNCIVAVSQNMGIGKNTDLPWPPLRNEFRYFQRMTTTSSVEGKQNLVIMGKKTWFSIPEKNRPLKGRINLVLSRELKEPPQGAHFLSRSLDDALKLTEQPELANKVDMVWIVGGSSVIKEAMNHPGHLKLFVTRIMQDFESDTFFPEIDLEKYKLLPEYPGVLSDVQEEKGIKYKFEVYEKND
modifications: GFP fusion
notes: hDHFR G21T, Y122I-GFP
- % GFP positive cells ([2]; 1 μM MTX): 86.6%
- GFP intensity Fold Change vs DMSO ([2]; 1 μM MTX): 14.53
- % GFP positive cells ([2]; 10 μM TMP): 2.92%
- GFP intensity Fold Change vs DMSO ([2]; 10 μM TMP): 1.30
- % GFP positive cells ([2]; DMSO): 0.61%
- Destabilizing mutation co-efficient [2]: 0.18
- Median Fluorescence signal with DMSO [2]: 3.27
- Protein level stabilization (immunoblot, FIG. 19) [3]: stabilization exclusively with MTX

B4: OT-RLuc-001: constitutive Renilla luciferase construct (protein, listed as Renilla reniformis)
chain: MTSKVYDPEQRKRMITGPQWWARCKQMNVLDSFINYYDSEKHAENAVIFLHGNAASSYLWRHVVPHIEPVARCIIPDLIGMGKSGKSGNGSYRLLDHYKYLTAWFELLNLPKKIIFVGHDWGACLAFHYSYEHQDKIKAIVHAESVVDVIESWDEWPDIEEDIALIKSEEGEKMVLENNFFVETMLPSKIMRKLEPEEFAAYLEPFKEKGEVRRPTLSWPREIPLVKGGKPDVVQIVRNYNAYLRASDDLPKMFIESDPGFFSNAIVEGAKKFPNTEFVKVKGLHFSQEDAPDEMGKYIKSFVERVLKNEQ
- Luciferase activity (FIG. 59B) [4]: high luciferase activity both in the presence and absence of ligand
- Luciferase stabilization by western blot (FIG. 59A) [4]: expression of Renilla luciferase both in the presence and absence of ligand

B5: OT-RLuc-006: DD regulated Renilla luciferase (protein)
chain: MTSKVYDPEQRKRMITGPQWWARCKQMNVLDSFINYYDSEKHAENAVIFLHGNAASSYLWRHVVPHIEPVARCIIPDLIGMGKSGKSGNGSYRLLDHYKYLTAWFELLNLPKKIIFVGHDWGACLAFHYSYEHQDKIKAIVHAESVVDVIESWDEWPDIEEDIALIKSEEGEKMVLENNFFVETMLPSKIMRKLEPEEFAAYLEPFKEKGEVRRPTLSWPREIPLVKGGKPDVVQIVRNYNAYLRASDDLPKMFIESDPGFFSNAIVEGAKKFPNTEFVKVKGLHFSQEDAPDEMGKYIKSFVERVLKNEQSGISLIAALAVDYVIGMENAMPWNLPADLAWFKRNTLNKPVIMGRHTWESIGRPLPGRKNIILSSQPGTDDRVTWVKSVDEAIAACGDVPEIMVIGGGRVIEQFLPKAQKLYLTHIDAEVEGDTHFPDYEPDDWESVFSEFHDADAQNSHSYCFEILERR
- Luciferase stabilization by western blot (FIG. 59A) [4]: modest stabilization of Renilla luciferase in the presence of their corresponding ligand

B6: OT-RLuc-005: DD regulated Renilla luciferase (protein)
chain: MTSKVYDPEQRKRMITGPQWWARCKQMNVLDSFINYYDSEKHAENAVIFLHGNAASSYLWRHVVPHIEPVARCIIPDLIGMGKSGKSGNGSYRLLDHYKYLTAWFELLNLPKKIIFVGHDWGACLAFHYSYEHQDKIKAIVHAESVVDVIESWDEWPDIEEDIALIKSEEGEKMVLENNFFVETMLPSKIMRKLEPEEFAAYLEPFKEKGEVRRPTLSWPREIPLVKGGKPDVVQIVRNYNAYLRASDDLPKMFIESDPGFFSNAIVEGAKKFPNTEFVKVKGLHFSQEDAPDEMGKYIKSFVERVLKNEQSGGVQVETISPGDGRTFPKRGQTCVVHYTGMLGDGKKVDSSRDRNKPFKFMLGKQEVIRGWEEGVAQMSVGQGAKLTISPDYAYGATGHPGIIPPHATLVFDVELLELE
- Luciferase stabilization by western blot (FIG. 59A) [4]: modest stabilization of Renilla luciferase in the presence of their corresponding ligand

B7: OT-RLuc-004: DD regulated Renilla luciferase (protein)
chain: MISLIAALAVDYVIGMENAMPWNLPADLAWFKRNTLNKPVIMGRHTWESIGRPLPGRKNIILSSQPGTDDRVTWVKSVDEAIAACGDVPEIMVIGGGRVIEQFLPKAQKLYLTHIDAEVEGDTHFPDYEPDDWESVFSEFHDADAQNSHSYCFEILERRSGTSKVYDPEQRKRMITGPQWWARCKQMNVLDSFINYYDSEKHAENAVIFLHGNAASSYLWRHVVPHIEPVARCIIPDLIGMGKSGKSGNGSYRLLDHYKYLTAWFELLNLPKKIIFVGHDWGACLAFHYSYEHQDKIKAIVHAESVVDVIESWDEWPDIEEDIALIKSEEGEKMVLENNFFVETMLPSKIMRKLEPEEFAAYLEPFKEKGEVRRPTLSWPREIPLVKGGKPDVVQIVRNYNAYLRASDDLPKMFIESDPGFFSNAIVEGAKKFPNTEFVKVKGLHFSQEDAPDEMGKYIKSFVERVLKNEQ
- Luciferase stabilization by western blot (FIG. 59A) [4]: modest stabilization of Renilla luciferase in the presence of their corresponding ligand
